The record followed here is US20230272086A1 (CHIA TAI TIANQING PHARMACEUTICAL GROUP, published 2023).

Test [1] has as its target T1, cynomolgus monkey ST2 antigen (Cyno-ST2-his, Sino biological, 90915-C08H) (cynomolgus monkey, UniProt Q01638 19-328 (human entry)).
T1 construct: Bought protein; not shown: his tag
T1 chain: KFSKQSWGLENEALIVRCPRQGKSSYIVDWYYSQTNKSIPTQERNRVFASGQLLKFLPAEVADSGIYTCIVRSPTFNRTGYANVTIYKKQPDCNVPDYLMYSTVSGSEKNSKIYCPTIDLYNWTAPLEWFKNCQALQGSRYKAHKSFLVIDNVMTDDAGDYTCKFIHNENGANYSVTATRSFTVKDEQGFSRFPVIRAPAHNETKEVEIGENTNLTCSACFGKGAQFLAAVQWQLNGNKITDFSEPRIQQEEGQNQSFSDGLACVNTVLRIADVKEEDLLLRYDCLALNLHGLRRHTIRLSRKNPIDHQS
Put plainly: ELISA, plate coated with Cyno-ST2-his. As to the method:
ST2 binding screening and analysis of antibodies were performed by ELISA using hST2-ECD-mFc (for assays of chimeric and humanized antibodies), hST2-ECD-hFc protein (for assays of hybridoma antibodies) and Cyno-ST2-his (Sino biological, 90915-C08H) as antigens. A high-adsorption 96-well plate (Costar, 9018) was coated with 2 µg/mL hST2-ECD-mFc or Cyno-ST2-his antigen at 100 µL/well and incubated overnight at 4° C. After the antigen not adsorbed was well washed off, the non-specific binding sites were blocked with a blocking buffer (PBS containing 2% bovine serum albumin). After the plate was washed three times with a washing buffer (PBS containing 0.05% (v/v) Tween 20), the anti-ST2 antibodies (serially diluted 3-fold from an initial concentration of 10 nM to 8 concentrations: 3.333 nM, 1.111 nM, 0.370 nM, 0.123 nM, 0.041 nM, 0.014 nM, 0.005 nM, and 0.002 nM) were added at 100 µL/well, and the plate was incubated at room temperature for 1 h. After the plate was washed with the washing buffer, a horseradish peroxidase (HRP)-conjugated secondary antibody was added, and the plate was incubated for another 60 min. After the plate was washed with the washing buffer, the substrate TMB solution (Thermo, 00-4201-56) was added at 100 µL/well, and the plate was incubated at room temperature for 2 min. A stop solution (2 N H₂SO₄) was added at 100 µL/well to terminate the reactions. Colorimetric signals were generated and read at 450 nm using a microplate reader (PE, Envision). The data were analyzed using GraphPad Prism5, and the EC₅₀ values were calculated.

Test [2] has as its target T2, recombinant protein containing hST2 extracellular domain with mouse antibody heavy chain Fc tag (hST2-ECD-mFc) (human).
T2 construct: Used for SPR and for ELISA of chimeric and humanized antibodies; also called human ST2 antigen
T2 chain: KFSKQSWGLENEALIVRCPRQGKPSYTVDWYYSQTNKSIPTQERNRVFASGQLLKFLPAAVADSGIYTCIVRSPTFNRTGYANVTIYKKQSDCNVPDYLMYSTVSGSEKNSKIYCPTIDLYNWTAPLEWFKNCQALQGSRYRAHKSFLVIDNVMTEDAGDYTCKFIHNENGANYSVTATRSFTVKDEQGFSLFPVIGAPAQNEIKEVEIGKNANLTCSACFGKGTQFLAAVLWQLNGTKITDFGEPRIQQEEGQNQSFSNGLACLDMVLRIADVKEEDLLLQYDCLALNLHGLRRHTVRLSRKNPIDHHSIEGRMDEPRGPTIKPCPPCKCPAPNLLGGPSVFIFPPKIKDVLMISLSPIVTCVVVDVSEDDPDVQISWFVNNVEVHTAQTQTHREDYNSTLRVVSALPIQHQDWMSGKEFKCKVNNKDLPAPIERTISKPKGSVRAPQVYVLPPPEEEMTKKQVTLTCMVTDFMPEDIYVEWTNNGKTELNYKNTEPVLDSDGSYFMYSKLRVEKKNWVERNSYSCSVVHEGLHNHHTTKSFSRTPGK
The test can be described thus: SPR (Biacore T200), hST2-ECD-mFc captured by anti-mouse IgG on CM5, antibody as analyte, 1:1 model. As to the method: (§1) The reaction signals were detected in real time using a Biacore instrument (Cytiva, BiacoreT200), and then an association-dissociation curve was obtained. After the completion of dissociation in each cycle, the biochip was regenerated with a regeneration solution for the next capture; the procedure was repeated until the affinity of the different antibodies for ST2 was determined. The acquired data were finally analyzed using the GE BIAevaluation software with a 1:1 (Langmuir) binding model to determine the association rate constants ka (kon) and the dissociation rate constants kd (koff), and the dissociation constants KD were given by KD = kd/ka. The determined affinity of the anti-ST2 antibody for human ST2 antigen (hST2-ECD-mFc), cynomolgus monkey ST2 antigen (Cyno-ST2-his, Sino biological, 90915-C08H) and the determined affinity of the anti-ST2 chimeric antibodies for ST2 were shown in Table 5.

Test [3] deals with T1, cynomolgus monkey ST2 antigen …. The test can be described thus: SPR (Biacore T200), Cyno-ST2-his captured by anti-his antibody on CM5, antibody as analyte, 1:1 model. On the procedure:
as §1
The humanized antibodies hz31C81-1.1 (the amino acid sequence of the heavy chain set forth in SEQ ID NO: 75 and the amino acid sequence of the light chain set forth in SEQ ID NO: 81) and hz31C8-1.2 (the amino acid sequence of the heavy chain set forth in SEQ ID NO: 77 and the amino acid sequence of the light chain set forth in SEQ ID NO: 81) were subjected to affinity, binding, blocking and cell function analyses using the methods described in Example 4, Example 5, Example 6, Example 7, Example 8, Example 9 and Example 10. In the present disclosure, “hz” and “xi” denote humanized antibodies and chimeric antibodies, respectively; for example, “hz31C81-1.1” and “hz31C81-1.2” represent humanized 31C81-1.1 and 31C81-1.2 antibodies, and “xi31C8” represents a chimeric 31C8 antibody.
For orientation: In SPR one partner is held on a chip, and binding of the other changes the refractive index at the surface.

B1: Chimeric 7D1 (antibody, human IgG2, kappa, V domains shown)
VH: QVQLQQSGAELVRPGASVTLSCKASGYTFTDYEMHWVKQTPVHGLDWIGTIDPETGDTAYNQKFKGRATLTADKSSSTAYMELSSLTSEDSAVYYCTRYSYTNSPYGMDYWGQGTSVTVSS
VL: DVVMTQTPKFLLVSAGDRVTITCKASQSVSNDVAWYQQKPGQSPKLLIYYASNRYTGVPDRFTGSGYGTDFTFTINTVQAEDLAVYFCQQDYSSPYTFGGGTKLEIKR
notes: also called xi7D1
In general, EC50 refers to the concentration at which the effect is half-maximal. By Kd is commonly meant the concentration at which binding is half-saturated. Turning to B1, the EC50 in test [1] was 0.191 nM. For the same molecule, the Kd in test [2] came to 0.145 nM.

B2: Chimeric 17E2 (antibody, human IgG2, kappa, V domains shown)
VH: QVQLQQSGAELVRPGASVTLSCKASGYTFTDYEMHWVKQTPVLGLEWIGAIDPETGDTAYNQKFKGKATLTADKSSSTAYMELSSLASEDSAVYYCIRVDSNYDYFDYWGQDTTLTVSS
VL: DIVLTQSPPILSASPGEKVTMTCRASSSVSYMHWYQQKPGSSPKPWIYDTSNLASGVPARFSGSGSGTSYSLTISRVEAEDAATYYCQQWSSNPLTFGAGTKLELKR
notes: also called xi17E2
Molecule B2 registered a concentration for a half-maximal effect (EC50) in test [1] of 0.22 nM. For the same molecule, the dissociation constant (Kd) in test [2] turned out to be 0.0541 nM.

B3: GSK3772847 (antibody STLM208 in CN104411333, prepared in-house) (antibody, human IgG2, kappa, V domains shown)
VH: EVQLLESGGGLVQPGGSLRLSCAASGFTFSIYDMIWVRQAPGKGLEWVSSIRGEGGGTYYADSVKGRFTISRDNSKNTLYLQMNSLRAEDTAVYYCARDPWSTEGSFFVLDYWGQGTLVTVSS
VL: EIVLTQSPATLSLSPGERATLSCRASQSVDDDLAWYQQKPGQAPRLLIYDASNRATGIPARFSGSGSGTDFTLTISSLEPEDFAVYYCQQYITAPLTFGQGTKVEIKR
notes: Control anti-ST2 antibody
In turn, B3 gave a Kd in test [3] of 0.0923 nM.

B4: Humanized 31C8-1.1 (antibody, human IgG2, kappa, V domains shown)
VH: EVQLVQSGAEVKKPGATVKISCKASGYIFIDSEMHWVQQAPGKGLEWMGAIDPETGDTVYAEKFQGRVTITADKSSSTAYMELSSLRSEDTAVYYCTGSTTDYYFAYWGQGTLVTVSS
VL: DIQMTQSPSSLSASVGDRVTITCRSSKSLLHSNGIIYLYWYQQKPGKAPKLLIYQLSNLASGVPSRFSSSGSGTDFTLTISSLQPEDFATYYCAQNLELPFTFGQGTKVEIKR
notes: also called hz31C8-1.1; hz31C81-1.1
The molecule B4 showed a dissociation constant (Kd) in test [3] of 2.47 nM.

B5: Humanized 31C8-1.2 (antibody, human IgG2, kappa, V domains shown)
VH: QVQLVQSGAKVKKPGATVKISCKASGYIFIDSEMHWVQQAPGKGLEWMGAIDPETGDTVYAKKFKGRVTITADKSSSTAYMELSSLRSEDTAVYYCTGSTTDYYFAYWGQGTLVTVSS
VL: DIQMTQSPSSLSASVGDRVTITCRSSKSLLHSNGIIYLYWYQQKPGKAPKLLIYQLSNLASGVPSRFSSSGSGTDFTLTISSLQPEDFATYYCAQNLELPFTFGQGTKVEIKR
notes: also called hz31C8-1.2; hz31C81-1.2
B5 gave a Kd in test [3] of 5.27 nM.

B6: Chimeric 31C8 (antibody, human IgG2, kappa, V domains shown)
VH: QVQLQQSGPELVRPGASVTLSCKASGYIFIDSEMHWVKQTPVHGLEWIGAIDPETGDTVYNQKFKGKATLTADKSSSTASMELSSLTSEDSAVYYCTGSTTDYYFAYWGQGTTLTVSS
VL: DIVMTQAAFSNPVTLGTSASISCRSSKSLLHSNGIIYLYWYLQKPGQSPQLLIYQMSNLASGVPDRFSSSGSGTDFTLRISRVEAEDVGVYYCAQNLELPFTFGSGTKLEIKR
notes: also called xi31C8
B6 came in with an EC50 in test [1] of 0.163 nM. Besides, the dissociation constant Kd in test [3] turned out to be 1.62 nM; in test [2] it was 0.0177 nM.

B7: Chimeric 3C6 (antibody, human IgG2, kappa, V domains shown)
VH: QVQLQQSGAEVVRPGASVTLSCKASDYTITDYEMHWVKQTPVHGLEWIGAIDPETGDTAYSQNFKGKATLTADESSSTAYMELSSLTSEDSAVYYCSRSATDYYFASWGQGTTLTVSS
VL: DIVMTQAAISNPVTLGTSASMSCRSSKSLLHSNGITYLYWYLQKPGHSPQLLIYQMSNLASGVPDRFSSSGSGTDFTLKISRVEAEDVGVYYCAQNLELPFTFGSGTKLEIKR
notes: also called xi3C6
Regarding B7, the response in test [1] was half-maximal at 0.43 nM (EC50). Besides, the equilibrium dissociation constant (Kd) in test [2] was 0.0872 nM.

B8: Chimeric 26A1 (antibody, human IgG2, kappa, V domains shown)
VH: QVQLQQSGAELVRPGASVTLSCKASDYIFTDSEIHWVKQTLVHGLEWIGAIDPETGDTAYNQKFKGKATLTADKSSSTAYMELSSLTSEGSAVYYCSGSTTDCYFAYWGQGTTLTVSS
VL: DIVMTQAAFSNPVTLGTSASISCRSSKSLLHSNGIIYLYWYLQKPGQSPQLLIYQMSNLASGVPDRFSSSGSGTDFTLRISRVEAEDVGVYYCAQNLELPFTFGSGTKLEIKR
notes: also called xi26A1
Regarding B8, the response in test [1] was half-maximal at 0.946 nM (EC50). In addition, the Kd in test [2] came out at 0.0299 nM.

B9: Chimeric 8F4 (antibody, human IgG2, kappa, V domains shown)
VH: QVQLQQSGAELVRPGASVTLSCKASGHIFTDYEMQWVKQTPVHGLEWIGAFDPETGDTAYNQKFKGKATLTADKSSSTAYMELSSLTSEDSAVYYCSGSTTDYYFAYWGQGTSLTVSS
VL: DVVMTQTAFSNPVTLGTSASISCRSSKSLLHSNGIIYLYWYLQKPGQSPQLLIYQMSNLASGVPDRFSSSGSGTDFTLRISRVEAEDVGVYYCAQNLELPFTFGSGTKLEIKR
notes: also called xi8F4
In test [1], B9 came in with an EC50 of 0.164 nM. For the same molecule, in test [2], the Kd is 0.0933 nM.

B10: RG6149 (antibody Ab2 in CN104334582, prepared in-house) (antibody, human IgG2, kappa, V domains shown)
VH: EVQLVQSGAEVKKPGESLKISCKGSGYSFTNYWIGWVRQMPGKGLEWMGIIYPGNSDTRFSPSFQGQVTISADKSITTAYLQWSSLKASDTAMYYCARHGTSSDYYGLDVWGQGTTVTVSS
VL: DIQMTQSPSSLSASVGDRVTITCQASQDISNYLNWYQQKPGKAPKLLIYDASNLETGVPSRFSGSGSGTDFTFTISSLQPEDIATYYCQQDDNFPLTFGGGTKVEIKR
notes: Control anti-ST2 antibody
Regarding B10, the concentration giving a half-maximal response (EC50) in test [1] turned out to be 0.129 nM. Besides, the values for the dissociation constant (Kd) in test [3] and in test [2] were 0.069 nM and 0.0686 nM, respectively.
